Assays:
[1] = target: MASP-2 CCP1-CCP2-SP (human), O00187; experiment: enzyme inhibition, Z-L-Lys-SBzl substrate, tight-binding fit
Trypsin = experiment: as above
Thrombin = experiment: enzyme inhibition, Z-Gly-Pro-Arg-pNa substrate, tight-binding fit

Chain of MASP-2 CCP1-CCP2-SP (human), O00187 (O00187 298-686 limits assumed): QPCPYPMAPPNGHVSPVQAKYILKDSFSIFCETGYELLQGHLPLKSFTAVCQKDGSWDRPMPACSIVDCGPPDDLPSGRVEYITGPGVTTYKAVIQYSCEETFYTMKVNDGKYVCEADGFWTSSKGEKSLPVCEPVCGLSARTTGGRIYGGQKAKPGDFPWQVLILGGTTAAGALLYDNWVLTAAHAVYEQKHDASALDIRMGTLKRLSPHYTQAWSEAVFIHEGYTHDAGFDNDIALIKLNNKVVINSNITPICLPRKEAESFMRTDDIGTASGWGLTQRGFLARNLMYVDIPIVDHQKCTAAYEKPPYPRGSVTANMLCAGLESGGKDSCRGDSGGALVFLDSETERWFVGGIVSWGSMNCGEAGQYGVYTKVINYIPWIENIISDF
Chain of Trypsin (P00760 24-246): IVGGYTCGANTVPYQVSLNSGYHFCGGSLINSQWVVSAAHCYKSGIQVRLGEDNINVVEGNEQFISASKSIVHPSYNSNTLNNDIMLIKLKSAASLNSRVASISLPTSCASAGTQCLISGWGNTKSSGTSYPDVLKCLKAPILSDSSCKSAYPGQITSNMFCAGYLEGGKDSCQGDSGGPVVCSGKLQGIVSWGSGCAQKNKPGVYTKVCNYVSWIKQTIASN

Ki [1] | Ki (Trypsin) | Ki (Thrombin) | Binder
0.18 µM | 1 µM | 550 µM | GYCSRSYPPVCIPD (modifications not checked) [M2-6E]
 |  | 140 µM | GRCTKSIPPICFPD (modifications not checked) [wild-type SFTI (Sun Flower Trypsin Inhibitor)]
